Biological target: HA in BPL-inactivated virus preparation of A/New Caledonia/20/99 (H1N1) (influenza A virus A/New Caledonia/20/99 (H1N1))
Test: ELISA, IgG 5 µg/ml

| Substance | OD 492nm [OD 492nm] |
| --- | --- |
| CR6261 (antibody) | 1.46 |
| CR3014 (antibody) | 0.09 |

Source: patent publication EP2450379B1
